The target in experiment [1] is T1, rat calcitonin receptor (rat, UniProt P32214 25-516).
T1 construct: whole, on cells; also called rCTR; rat calcitonin (a) receptor
T1 sequence (looked up): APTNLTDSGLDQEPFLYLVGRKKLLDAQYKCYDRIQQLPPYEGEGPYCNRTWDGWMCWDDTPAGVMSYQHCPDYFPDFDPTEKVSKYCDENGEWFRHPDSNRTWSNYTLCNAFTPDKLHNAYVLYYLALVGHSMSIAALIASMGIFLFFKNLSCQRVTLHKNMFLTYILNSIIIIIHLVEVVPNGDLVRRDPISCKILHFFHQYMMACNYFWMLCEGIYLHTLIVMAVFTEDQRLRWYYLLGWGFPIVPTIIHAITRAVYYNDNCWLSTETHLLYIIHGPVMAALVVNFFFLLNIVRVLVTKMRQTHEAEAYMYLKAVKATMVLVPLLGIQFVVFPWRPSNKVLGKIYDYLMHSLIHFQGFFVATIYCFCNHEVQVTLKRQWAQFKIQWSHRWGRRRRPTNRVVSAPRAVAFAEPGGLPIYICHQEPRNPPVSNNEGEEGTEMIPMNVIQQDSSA
The experiment in a line: ratio of binding IC50s: rat calcitonin receptor over rat amylin receptor (reference).

Experiment [2] deals with T2, human calcitonin receptor (human, UniProt P30988 25-474).
T2 construct: whole, on cells; also called hCTR; hCT
T2 sequence (looked up): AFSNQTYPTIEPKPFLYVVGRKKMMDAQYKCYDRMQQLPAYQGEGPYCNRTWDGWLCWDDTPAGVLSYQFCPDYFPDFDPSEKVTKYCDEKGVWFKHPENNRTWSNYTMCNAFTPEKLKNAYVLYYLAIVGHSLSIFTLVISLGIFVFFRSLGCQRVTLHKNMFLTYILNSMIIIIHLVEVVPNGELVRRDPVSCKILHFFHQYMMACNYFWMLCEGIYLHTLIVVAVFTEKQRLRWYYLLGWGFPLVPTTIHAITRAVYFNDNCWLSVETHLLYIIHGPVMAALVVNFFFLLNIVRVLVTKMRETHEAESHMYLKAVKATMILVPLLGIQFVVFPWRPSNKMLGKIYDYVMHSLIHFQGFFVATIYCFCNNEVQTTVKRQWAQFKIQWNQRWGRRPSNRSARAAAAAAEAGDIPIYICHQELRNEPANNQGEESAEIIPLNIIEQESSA
Put plainly: ratio of binding IC50s: human calcitonin receptor over human amylin receptor (reference). On the procedure: The resulting pellet was resuspended, homogenized and centrifuged (20.000 rpm, 15 min) in a buffer containing 20 mM Na-HEPES and 0.1 mM EDTA (pH 7.4, buffer 2). The resulting pellet was resuspended in buffer 2 and protein concentration was measured (BCA protein Assay, Pierce). The homogenate was kept cold during the whole procedure. The membranes were kept at −80° C. until use. The assay was performed in a 384 well Optiplate (PerkinElmer) in a total volume of 40 ul. Membranes were mixed with SPA beads. Final concentration of membranes 35 ng/μL final and SPA beads was 0.05 mg/well. Test-compounds were dissolved in DMSO and further diluted in assay buffer (50 mM Hepes, pH 7.4, 1 mM CaCl2, 5 mM MgCl₂, 0.1% OA and 0.02% Tween20). […] The final mixture was incubated with shaking at 400 rpm for 120 min at 25° C. prior to centrifugation (1500 rpm, 10 min). Samples were analyzed on TopCounter™ (Packard). The IC₅₀ was calculated using (one site binding competition analysis) GraphPad Prism5 as a measure of receptor affinity.
Membranes were prepared in the following way; the cells were rinsed with PBS and incubated with Versene for approximately 5 min before harvesting. The cells were flushed with PBS and the cell-suspension was centrifuged for 5 min at 1000 rpm. Cells were homogenized (Ultrathurrax) in a buffer containing 20 mM Na-HEPES and 10 mM EDTA (pH 7.4) and centrifuged at 20.000 rpm for 15 min. The resulting pellet was resuspended, homogenized and centrifuged (20.000 rpm, 15 min) in a buffer containing 20 mM Na-HEPES and 0.1 mM EDTA (pH 7.4, buffer 2). The resulting pellet was resuspended in buffer 2 and protein concentration was measured (BCA protein Assay, Pierce). The homogenate was kept cold during the whole procedure. The membranes were kept at −80° C. until use. Assay was performed in a 384 well Optiplate (PerkinElmer) in a total volume of 40 ul. Membranes were mixed with SPA beads.

Experiment [3] deals with T1, rat calcitonin receptor. The experiment in a line: SPA competition with 125I-calcitonin, membranes of BHK cells with rat calcitonin receptor (Assay VIII).
For experiment [4], the target named is T3, rat amylin receptor (rat calcitonin receptor + rat RAMP 3) (rat, UniProt P32214 25-516; Q9JJ73 23-147).
T3 construct: whole, on cells; also called rAmylin-R; rat amylin 3(a) receptor
T3 sequence (looked up) 1: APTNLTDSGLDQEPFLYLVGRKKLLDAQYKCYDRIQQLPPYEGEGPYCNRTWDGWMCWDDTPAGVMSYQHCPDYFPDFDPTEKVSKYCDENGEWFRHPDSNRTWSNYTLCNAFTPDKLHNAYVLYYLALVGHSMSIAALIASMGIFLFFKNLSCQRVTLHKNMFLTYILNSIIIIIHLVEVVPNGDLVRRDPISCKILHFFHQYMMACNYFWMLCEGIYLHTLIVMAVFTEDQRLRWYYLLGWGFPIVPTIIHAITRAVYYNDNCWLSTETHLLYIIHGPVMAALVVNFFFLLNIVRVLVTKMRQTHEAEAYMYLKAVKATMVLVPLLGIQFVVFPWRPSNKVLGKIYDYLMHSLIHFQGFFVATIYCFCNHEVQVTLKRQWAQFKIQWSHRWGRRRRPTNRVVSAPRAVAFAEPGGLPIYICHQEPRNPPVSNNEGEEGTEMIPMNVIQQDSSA
T3 sequence (looked up) 2: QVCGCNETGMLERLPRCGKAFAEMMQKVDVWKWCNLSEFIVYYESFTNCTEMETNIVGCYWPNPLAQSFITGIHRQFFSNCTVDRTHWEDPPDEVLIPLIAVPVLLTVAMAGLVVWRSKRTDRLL
Put plainly: SPA competition with 125I-rat amylin, membranes of BHK cells with rat calcitonin receptor + rat RAMP3 (Assay VI).

The values that follow come from patent publication US20140087995A1 (published 2014).

Numbered stars: 1 amine (or outer) side, 2 acyl side, 3 side chain; on linkers, the order of the positions; unused ones are H or OH. Bridge positions count the residues as written; N and C are the ends. Side chains are listed from the residue outwards. Ends that are not written are not given here. * marks the point of attachment. C20 diacid = O=C(O)CCCCCCCCCCCCCCCCCCC(=O)*; γGlu = O=C(O)[C@H](CCC(=O)[*:2])N[*:1]; AEEA = NCCOCCOCC(=O)O

B1: N^ε1-[2-[2-[2-[[(4S)-4-carboxy-4-(19-carboxynonadecanoylamino)butanoyl]amino]ethoxy]ethoxy]acetyl]-[His14,Arg17,Pro21,Pro27]-h-amylin (peptide)
peptide: K([AEEA-γGlu-C20 diacid])CNTATCATQRLAHFLRHSSPNFGAIPSSTNVGSNTY-NH2
modifications: disulfide 2-7; N-terminus assumed
SMILES: CC[C@H](C)[C@H](NC(=O)[C@H](C)NC(=O)CNC(=O)[C@H](Cc1ccccc1)NC(=O)[C@H](CC(N)=O)NC(=O)[C@@H]1CCCN1C(=O)[C@H](CO)NC(=O)[C@H](CO)NC(=O)[C@H](Cc1c[nH]cn1)NC(=O)[C@H](CCCNC(=N)N)NC(=O)[C@H](CC(C)C)NC(=O)[C@H](Cc1ccccc1)NC(=O)[C@H](Cc1c[nH]cn1)NC(=O)[C@H](C)NC(=O)[C@H](CC(C)C)NC(=O)[C@H](CCCNC(=N)N)NC(=O)[C@H](CCC(N)=O)NC(=O)[C@@H](NC(=O)[C@H](C)NC(=O)[C@@H]1CSSC[C@H](NC(=O)[C@@H](N)CCCCNC(=O)COCCOCCNC(=O)CC[C@H](NC(=O)CCCCCCCCCCCCCCCCCCC(=O)O)C(=O)O)C(=O)N[C@@H](CC(N)=O)C(=O)N[C@@H]([C@@H](C)O)C(=O)N[C@@H](C)C(=O)N[C@@H]([C@@H](C)O)C(=O)N1)[C@@H](C)O)C(=O)N1CCC[C@H]1C(=O)N[C@@H](CO)C(=O)N[C@@H](CO)C(=O)N[C@H](C(=O)N[C@@H](CC(N)=O)C(=O)N[C@H](C(=O)NCC(=O)N[C@@H](CO)C(=O)N[C@@H](CC(N)=O)C(=O)N[C@H](C(=O)N[C@@H](Cc1ccc(O)cc1)C(N)=O)[C@@H](C)O)C(C)C)[C@@H](C)O
notes: synthetic analogue of human amylin; also called compound 69
Take B1: the “Ratio rCT/rAmylin binding” value with rat calcitonin receptor [1] came out at 104. In experiment [2], the “Ratio hCT/hAmylin binding” value is 65.3. For the same molecule, the IC50 – broadly, the concentration that gives 50% inhibition – with rat calcitonin receptor [3] is 46.8 nM; in experiment [4], 0.45 nM.
